Legend:
Assay in all cases: initial rate of epoxide hydrolysis, chiral HPLC
Type in all cases: biochemical, Agromyces mediolanus
Settings in all cases: phosphate buffer 0.2 M, pH 8.0, 30 °C (general activity assay), enantiopure substrate
c1ccc(COC[C@H]2CO2)cc1 = system: T1, c1ccc(COC[C@H]2CO2)cc1
T1 construct: synthetic gene, triple variant, C-terminal His6 (3' end of gene) in pET28a NcoI/XhoI, E. coli BL21(DE3), Ni-NTA purified, about 43 kDa
From the text: (§1) initial rate of epoxide hydrolysis, chiral HPLC on vEH-Am

c1ccc(COC[C@@H]2CO2)cc1 = system: T2, c1ccc(COC[C@@H]2CO2)cc1
T2 construct: synthetic gene, triple variant, C-terminal His6 (3' end of gene) in pET28a NcoI/XhoI, E. coli BL21(DE3), Ni-NTA purified, about 43 kDa
From the text: as §1

c1ccc([C@H]2CO2)cc1 = system: T3, c1ccc([C@H]2CO2)cc1
T3 construct: synthetic gene, triple variant, C-terminal His6 (3' end of gene) in pET28a NcoI/XhoI, E. coli BL21(DE3), Ni-NTA purified, about 43 kDa
From the text: as §1

c1ccc([C@@H]2CO2)cc1 = system: T4, c1ccc([C@@H]2CO2)cc1
T4 construct: synthetic gene, triple variant, C-terminal His6 (3' end of gene) in pET28a NcoI/XhoI, E. coli BL21(DE3), Ni-NTA purified, about 43 kDa
From the text: as §1

For “vEH-Am (Agromyces mediolanus; N240D/S207V/W182F)”, the Km (c1ccc(COC[C@H]2CO2)cc1) was 9.3 mM, the Km (c1ccc(COC[C@@H]2CO2)cc1) was 36.5 mM and the Km (c1ccc([C@H]2CO2)cc1) was 0.9 mM. It also gave a Km (c1ccc([C@@H]2CO2)cc1) of 5.2 mM.

Reference: article PMC6627055, “Enantioselective Hydrolysis of Styrene Oxide and Benzyl Glycidyl Ether by a Variant of Epoxide Hydrolase from Agromyces mediolanus” (Marine Drugs, 2019)
